Literature values as cited in US9150638B2, “Factor XII inhibitors for treating interstitial lung disease” (Justus-Liebig-Universität Giessen, priority 2010, dated 2015).

Target: T1, FXIIa (Homo sapiens, UniProt P00748)
T1 sequence (P00748 373-615 limits assumed): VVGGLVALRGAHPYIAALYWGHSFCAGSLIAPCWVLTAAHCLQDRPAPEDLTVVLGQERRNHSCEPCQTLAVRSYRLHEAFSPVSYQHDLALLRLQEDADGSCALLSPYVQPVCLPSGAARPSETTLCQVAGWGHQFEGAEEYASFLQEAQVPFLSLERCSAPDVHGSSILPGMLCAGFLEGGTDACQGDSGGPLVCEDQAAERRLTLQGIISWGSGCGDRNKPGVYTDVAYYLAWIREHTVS
T1 sequence (P00748 20-372 partner limits assumed): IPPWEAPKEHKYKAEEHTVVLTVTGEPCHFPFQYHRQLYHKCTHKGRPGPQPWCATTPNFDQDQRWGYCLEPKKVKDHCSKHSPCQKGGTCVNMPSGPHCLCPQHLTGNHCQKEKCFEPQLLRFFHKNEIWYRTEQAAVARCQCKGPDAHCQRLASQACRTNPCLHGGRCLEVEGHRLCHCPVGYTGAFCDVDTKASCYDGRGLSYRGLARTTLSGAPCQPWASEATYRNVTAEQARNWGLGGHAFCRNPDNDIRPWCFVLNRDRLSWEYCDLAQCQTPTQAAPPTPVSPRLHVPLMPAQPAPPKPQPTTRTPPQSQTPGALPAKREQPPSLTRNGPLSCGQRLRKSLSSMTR
Conditions: cited from earlier work

Substance: Infestin-4: Kazal-type serine protease inhibitor domain 4 from Triatoma infestans, FXIIa inhibitor (SEQ ID NO: 33) (EVRNPCACFRNYVPVCGSDGKTYGNPCMLNCAAQTKVPGLKLVHEGRC; Triatoma infestans)
- prolonging activated partial thromboplastin time: approximately three-fold
